# According to patent publication US20150133367A1 (University of Pennsylvania, published 2015):
# Positions of bridges follow the written chain, without caps; N, C: chain ends. Non-standard residues stand in square brackets, D forms with d. No end group written: not given here. alpha,alpha'‑meta‑xylylene = alpha,alpha'-meta-xylylene linker (from a,a'-dibromo-meta-xylene) bridging two cysteines via bis-thioether; βAla = NCCC(=O)O
# T1: Calpain-1
# T1 chain 1: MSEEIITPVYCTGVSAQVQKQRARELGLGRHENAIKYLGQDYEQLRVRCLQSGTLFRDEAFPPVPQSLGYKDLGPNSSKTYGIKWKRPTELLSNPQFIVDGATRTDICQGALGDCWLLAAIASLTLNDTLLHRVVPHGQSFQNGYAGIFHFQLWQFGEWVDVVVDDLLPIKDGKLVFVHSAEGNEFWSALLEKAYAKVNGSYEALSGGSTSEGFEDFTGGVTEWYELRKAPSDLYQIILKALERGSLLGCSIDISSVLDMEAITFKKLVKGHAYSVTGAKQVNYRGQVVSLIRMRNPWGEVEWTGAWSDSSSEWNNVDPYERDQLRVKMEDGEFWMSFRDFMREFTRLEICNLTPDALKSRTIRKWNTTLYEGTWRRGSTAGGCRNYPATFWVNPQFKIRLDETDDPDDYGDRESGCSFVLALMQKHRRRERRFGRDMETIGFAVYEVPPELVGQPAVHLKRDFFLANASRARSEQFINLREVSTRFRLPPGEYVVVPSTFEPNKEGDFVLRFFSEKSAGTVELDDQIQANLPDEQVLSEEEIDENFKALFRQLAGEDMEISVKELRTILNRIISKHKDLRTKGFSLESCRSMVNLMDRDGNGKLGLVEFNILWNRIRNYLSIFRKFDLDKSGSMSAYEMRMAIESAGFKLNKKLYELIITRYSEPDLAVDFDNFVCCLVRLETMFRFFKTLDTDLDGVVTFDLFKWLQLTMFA
# T1 chain 2: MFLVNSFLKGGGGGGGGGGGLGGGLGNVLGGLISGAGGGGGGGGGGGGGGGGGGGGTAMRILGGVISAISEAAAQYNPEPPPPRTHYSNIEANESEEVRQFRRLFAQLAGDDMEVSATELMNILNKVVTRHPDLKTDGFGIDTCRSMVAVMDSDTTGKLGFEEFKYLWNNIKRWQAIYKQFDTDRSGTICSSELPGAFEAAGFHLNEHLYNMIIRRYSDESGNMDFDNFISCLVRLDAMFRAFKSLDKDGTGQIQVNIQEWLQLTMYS
# B1: IPPKYCELLC (SEQ ID NO:65) (peptide)
# peptide: IPPKYCELLC
# modifications: linker 6-10 via alpha,alpha'‑meta‑xylylene
# B2: IPPKYCEQLC (SEQ ID NO:85) (peptide)
# peptide: IPPKYCEQLC
# modifications: linker 6-10 via alpha,alpha'‑meta‑xylylene
# notes: also called compound (Ia)
# B3: IPPRYCELLC (SEQ ID NO:80) (peptide)
# peptide: IPPRYCELLC
# modifications: linker 6-10 via alpha,alpha'‑meta‑xylylene
# B4: APPKYCELLC (SEQ ID NO:72) (peptide)
# peptide: APPKYCELLC
# modifications: linker 6-10 via alpha,alpha'‑meta‑xylylene
# B5: IPPAYCELLC (SEQ ID NO:78) (peptide)
# peptide: IPPAYCELLC
# modifications: linker 6-10 via alpha,alpha'‑meta‑xylylene
# B6: IPPRWCELLC (SEQ ID NO:91) (peptide)
# peptide: IPPRWCELLC
# modifications: linker 6-10 via alpha,alpha'‑meta‑xylylene
# B7: IPPKACELLC (SEQ ID NO:81) (peptide)
# peptide: IPPKACELLC
# modifications: linker 6-10 via alpha,alpha'‑meta‑xylylene
# B8: IPPKYCEALC (SEQ ID NO:86) (peptide)
# peptide: IPPKYCEALC
# modifications: linker 6-10 via alpha,alpha'‑meta‑xylylene
# B9: LPPKYCELLC (SEQ ID NO:74) (peptide)
# peptide: LPPKYCELLC
# modifications: linker 6-10 via alpha,alpha'‑meta‑xylylene
# B10: IPPKYCALLC (SEQ ID NO:84) (peptide)
# peptide: IPPKYCALLC
# modifications: linker 6-10 via alpha,alpha'‑meta‑xylylene
# B11: LGKREVTIPPKYCELLC (SEQ ID NO:67) (peptide)
# peptide: LGKREVTIPPKYCELLC
# modifications: linker 13-17 via alpha,alpha'‑meta‑xylylene
# notes: 17 amino acids
# B12: IPPCYRECLA (SEQ ID NO:64) (peptide)
# peptide: IPPCYRECLA
# modifications: linker 4-8 via alpha,alpha'‑meta‑xylylene
# B13: QPPKYCELLC (SEQ ID NO:76) (peptide)
# peptide: QPPKYCELLC
# modifications: linker 6-10 via alpha,alpha'‑meta‑xylylene
# B14: DPPKYCELLC (SEQ ID NO:71) (peptide)
# peptide: DPPKYCELLC
# modifications: linker 6-10 via alpha,alpha'‑meta‑xylylene
# B15: PPPKYCELLC (SEQ ID NO:73) (peptide)
# peptide: PPPKYCELLC
# modifications: linker 6-10 via alpha,alpha'‑meta‑xylylene
# B16: (b-Ala)AIPPKYCELLC (SEQ ID NO:70) (peptide)
# peptide: [βAla]AIPPKYCELLC
# modifications: linker 8-12 via alpha,alpha'‑meta‑xylylene
# B17: I(pf5)PKYCELLC (SEQ ID NO:77) (peptide)
# peptide: IXPKYCELLC
# modifications: Cys6 and Cys10 (i,i+4) linked by alpha,alpha'-meta-xylylene; residue 2 pf5 = pentafluorophenylalanine
# B18: IPPKYCELFC (SEQ ID NO:88) (peptide)
# peptide: IPPKYCELFC
# modifications: linker 6-10 via alpha,alpha'‑meta‑xylylene
# Biological target: Cathepsin L (UniProt P07711 114-333)
# Sequence (P07711 114-333 limits assumed): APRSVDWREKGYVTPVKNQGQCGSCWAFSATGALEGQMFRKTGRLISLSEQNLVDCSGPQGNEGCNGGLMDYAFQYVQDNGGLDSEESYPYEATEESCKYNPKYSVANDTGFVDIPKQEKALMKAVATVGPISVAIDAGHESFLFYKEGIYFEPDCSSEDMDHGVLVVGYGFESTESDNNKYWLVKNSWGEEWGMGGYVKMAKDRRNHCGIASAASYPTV
# Assay: fluorescence-based enzyme inhibition assay
row,Ki [µM],Binder
1,39.9,B1
2,66.2,B2
3,37.9,B3
4,12.5,B4
5,24.6,B5
6,8.8,B6
7,8.12,B7
8,21.4,B8
9,38.1,B9
10,12.5,B10

# Biological target: Cathepsin S (UniProt P25774 115-331)
# Sequence (P25774 115-331 limits assumed): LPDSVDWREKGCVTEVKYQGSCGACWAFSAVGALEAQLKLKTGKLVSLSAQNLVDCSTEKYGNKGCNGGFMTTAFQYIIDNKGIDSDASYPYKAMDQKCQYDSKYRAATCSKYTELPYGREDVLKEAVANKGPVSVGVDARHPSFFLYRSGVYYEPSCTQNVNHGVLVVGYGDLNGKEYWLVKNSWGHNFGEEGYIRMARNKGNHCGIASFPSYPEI
# Assay: fluorescence-based enzyme inhibition assay
row,Ki [µM],Binder
1,31.5,B11
2,50.2,B1
3,21.4,B2
4,35.9,B3
5,26.1,B4
6,20.7,B5
7,16.8,B7
8,13.9,B8
9,46.3,B9
10,15.6,B10

# Biological target: T1, Calpain-1
# Assay: fluorescence-based enzyme inhibition assay
row,Ki [µM],Binder
1,3.6,B11
2,95.6,B12
3,35,B13
4,10.2,B1
5,11,B2
6,5.3,B3
7,65.6,B4
8,17.7,B5
9,30.9,B8
10,11,B9
11,28.9,B10
12,27.6,B14
13,45.3,B15
14,10.7,B16
15,5.09,B17
16,27.9,B18
